Experimental data: patent publication US20230151111A1 (AKESO BIOPHARMA, published 2023)
Blank lines part the entries; values can stand above or below the binder they belong to.

Experiments:
[1] = target: T1, PD-1-mFc (human, UniProt Q15116 25-170, limits assumed); test: BLI (Fortebio), antibody on AHC sensor, PD-1-mFc 0.6-50 nM, 37 C
T1 construct: also called human PD-1-mFc
Description: The sample dilution buffer was PBST, 0.1% BSA, pH 7.4. The antibody was immobilized on an AHC sensor at a concentration of 5 μg/mL with an immobilization height of about 0.4 nm. The sensor was equilibrated in a buffer for 60 s, and the binding of the immobilized antibody on the sensor to the antigen PD-1-mFc at concentrations of 0.6-50 nM (three-fold dilution) was determined in 120 s. The protein was dissociated in the buffer for 180 s. The detection temperature was 37° C., the detection frequency was 0.3 Hz, and the sample plate shaking rate was 1000 rpm. The data were analyzed by 1:1 model fitting to obtain affinity constants.

[2] = target: T2, human NT5E(1-552)-his (human, UniProt P21589 27-552); test: BLI (Fortebio), antibody on Protein A sensor, NT5E(1-552)-his 3.125-200 nM, 37 C
T2 construct: The entry starts at Met 1
T2 sequence: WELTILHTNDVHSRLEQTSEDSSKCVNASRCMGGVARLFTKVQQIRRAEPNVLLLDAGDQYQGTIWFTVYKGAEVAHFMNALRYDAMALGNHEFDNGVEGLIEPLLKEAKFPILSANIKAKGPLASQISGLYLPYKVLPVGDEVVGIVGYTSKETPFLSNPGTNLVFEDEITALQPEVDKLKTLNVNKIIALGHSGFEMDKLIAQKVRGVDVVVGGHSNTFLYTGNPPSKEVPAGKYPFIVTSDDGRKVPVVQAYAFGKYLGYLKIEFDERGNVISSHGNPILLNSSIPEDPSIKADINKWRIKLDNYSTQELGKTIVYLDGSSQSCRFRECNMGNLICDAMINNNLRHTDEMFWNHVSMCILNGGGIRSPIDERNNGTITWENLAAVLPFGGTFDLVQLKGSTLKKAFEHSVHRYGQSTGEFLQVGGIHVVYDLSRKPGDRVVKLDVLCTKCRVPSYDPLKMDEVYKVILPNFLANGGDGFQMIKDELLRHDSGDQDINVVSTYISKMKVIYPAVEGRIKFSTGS
Description: The sample dilution buffer was PBST, pH 7.4. The antibody was immobilized on a Protein A sensor at a concentration of 5 μg/mL with the immobilization time of about 15 s. […] The protein was dissociated in the buffer for 600 s. The sensor was refreshed with 10 mM Gly solution, pH 1.5. The detection temperature was 37° C., the detection frequency was 0.6 Hz, and the sample plate shaking rate was 1000 rpm. The data were analyzed by 1:1 model fitting to obtain affinity constants.

[3] = target: T3, human PD-1-mFc-biotin (human, UniProt Q15116 25-170, limits assumed, biotin label, site not stated); test: competitive ELISA, competitor coated PD-L1-mFc; antibody 5 ug/mL diluted 1:3
Description: (§1) After incubation, the microplate was blocked with a PBS solution containing 1% BSA at 37° C. for 2 h. After blocking, the plate was washed three times and dried. The antibody was serially diluted to 7 concentrations in a gradient ratio of 1:3 on a dilution plate with 10 μg/mL as the starting concentration, and a blank control was set. […] Then the mixture after reaction was added to the coated microplate, and the microplate was incubated for at 37° C. for 30 min. After incubation, the plate was washed three times with PBST and dried. SA-HRP (KPL, 14-30-00) working solution was added, and the plate was incubated at 37° C. for 30 min. After incubation, the plate was washed four times and patted dry. Then TMB (Neogen, 308177) was added in the dark for chromogenesis for 5 min, and a stop solution was added to terminate chromogenic reaction. Then the microplate was put into a microplate reader immediately, and the OD value of each well in the microplate was read at 450 nm. The data were analyzed and processed by SoftMax Pro 6.2.1.

[4] = target: T3, human PD-1-mFc-biotin; test: competitive ELISA, blocking of PD-1-mFc-biotin binding to coated PD-L1-mFc
Description: as §1

[5] = target: T3, human PD-1-mFc-biotin; test: competitive ELISA, competitor coated PD-L1-mFc; antibody 5 ug/mL
Description: as §1

T1 sequence (Q15116 other isoform, or with tags, fused parts or gaps limits assumed): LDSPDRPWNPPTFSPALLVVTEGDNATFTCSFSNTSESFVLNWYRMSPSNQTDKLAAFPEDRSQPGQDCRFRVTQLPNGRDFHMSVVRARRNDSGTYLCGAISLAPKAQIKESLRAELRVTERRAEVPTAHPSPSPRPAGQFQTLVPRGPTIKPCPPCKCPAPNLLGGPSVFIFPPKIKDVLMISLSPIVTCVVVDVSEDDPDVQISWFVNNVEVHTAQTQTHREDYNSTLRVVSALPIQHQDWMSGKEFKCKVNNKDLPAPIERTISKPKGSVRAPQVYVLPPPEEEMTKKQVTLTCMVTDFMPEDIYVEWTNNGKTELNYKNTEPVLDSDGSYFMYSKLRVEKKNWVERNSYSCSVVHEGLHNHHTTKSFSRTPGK
T3 sequence (Q15116 other isoform, or with tags, fused parts or gaps limits assumed): as above

- Kd [1]: 0.176 nM
- koff [1]: 7.37e-05 s⁻¹
- kon [1]: 419000 M⁻¹ s⁻¹
- Kd [2]: 0.229 nM
- koff [2]: 4.13e-05 s⁻¹
- kon [2]: 181000 M⁻¹ s⁻¹
- OD450 [3]: 0.05 OD
- EC50 [4]: 1.11 nM
B1: P1D7V01 (bispecific antibody, human IgG1, kappa)
heavy: not shown
light: DIQMTQSPSSMSASVGDRVTFTCRASQDINTYLSWFQQKPGKSPKTLIYRANRLVSGVPSRFSGSGSGQDYTLTISSLQPEDMATYYCLQYDEFPLTFGAGTKLELKRTVAAPSVFIFPPSDEQLKSGTASVVCLLNNFYPREAKVQWKVDNALQSGNSQESVTEQDSKDSTYSLSSTLTLSKADYEKHKVYACEVTHQGLSSPVTKSFNRGEC
notes: Morrison form IgG-scFv

- EC50 [4]: 1.15 nM
- OD450 [5]: 0.048 OD
B2: P1D7V03 (bispecific antibody, human IgG1, kappa)
heavy: not shown
light: B1 light
notes: Morrison form IgG-scFv
